Experimental findings from PMC13425845 are described below.

In test [1] the target is human γD-crystallin C18S/C32S/C41S/C78S (human). Nature of the test: intact protein electrospray mass spectrometry; Bruker Impact II QTOF electrospray mass spectrometer with HPLC; isotopically averaged mass of monomer and dimer samples.
Test [2] deals with human γD-crystallin C18T/C32A/C41A/C78A (human). The test is described as above.

As a reminder, the stoichiometry N is a count of units in the complex or per binding partner. As for “human γD-crystallin C18S/C32S/C41S/C78S (natural protein)”, the stoichiometry N in test [1] turned out to be 2.
In turn, “human γD-crystallin C18T/C32A/C41A/C78A (natural protein)” yielded a stoichiometry N in test [2] of 2.
